One substance from patent US20060234940A1 can be followed below.

The assay concerns the target recombinant human DP IV, wild type (human) (UniProt P27487). As to the kind of experiment: photometric assay, competition with the standard substrate GP-4NA.

One may read the Ki as a measure of affinity in units of concentration, obtained from inhibition or displacement.

Sequence of recombinant human DP IV, wild type (human) (P27487 other isoform, or with tags, fused parts or gaps): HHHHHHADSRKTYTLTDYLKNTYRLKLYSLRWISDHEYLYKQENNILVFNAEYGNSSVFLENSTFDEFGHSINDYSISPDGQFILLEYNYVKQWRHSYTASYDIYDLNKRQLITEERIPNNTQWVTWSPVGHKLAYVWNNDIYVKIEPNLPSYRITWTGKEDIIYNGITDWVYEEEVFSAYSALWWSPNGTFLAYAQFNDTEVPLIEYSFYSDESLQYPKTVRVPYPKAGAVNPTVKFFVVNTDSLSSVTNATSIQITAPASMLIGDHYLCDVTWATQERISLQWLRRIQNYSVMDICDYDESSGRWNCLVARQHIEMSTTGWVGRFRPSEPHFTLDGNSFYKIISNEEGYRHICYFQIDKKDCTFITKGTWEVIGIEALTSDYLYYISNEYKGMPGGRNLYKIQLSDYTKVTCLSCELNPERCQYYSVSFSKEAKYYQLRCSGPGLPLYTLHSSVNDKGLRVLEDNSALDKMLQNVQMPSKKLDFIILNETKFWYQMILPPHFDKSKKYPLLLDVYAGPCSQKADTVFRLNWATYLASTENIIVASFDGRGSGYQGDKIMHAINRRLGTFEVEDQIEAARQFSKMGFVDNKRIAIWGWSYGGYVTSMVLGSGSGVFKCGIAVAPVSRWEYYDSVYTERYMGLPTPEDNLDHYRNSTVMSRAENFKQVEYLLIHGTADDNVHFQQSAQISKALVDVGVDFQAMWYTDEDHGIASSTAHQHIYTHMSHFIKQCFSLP

As for “PACAP-27 (from UniProt P18509 132-158) (peptide)”, the Ki worked out at 113 µM.
